Test [1] deals with SARS-CoV-2 Spike protein on live SARS-CoV-2 (SARS-CoV-2, UniProt P0DTC2 14-1273). In words: cell-based or functional assay.
The target in test [2] is T1, RBD-SD1 (SARS-CoV-2, UniProt P0DTC2 319-591). In words: epitope analysis, FIG. 4B.
The target of test [3] is T1, RBD-SD1.
For test [4], the target named is T1, RBD-SD1. The source holds these as a separate data set.
Test [5] has as its target T1, RBD-SD1. In words: Octet, IgG1 on AHC biosensor. A general note: In BLI a coated tip is dipped into the sample, and binding shifts an interference pattern.
For test [6], the target named is T2, SARS-CoV-2 Spike receptor binding domain, wild-type (SARS-CoV-2, UniProt P0DTC2 319-541).
T2 construct: domain: RBD
In words: Octet, IgG1 on AHC biosensor.

Test [7] addresses T1, RBD-SD1. The source holds these as a separate data set.

Where a chain is given by its changes, count along the chain named. Read-outs that look alike come from different tables or passages of the source.

B1: N-612-017 (antibody, V domains shown)
VH: EVQLVESGGGLVQPGGSLRLSCAASGFTFSSYAMHWVRQAPGKGLEWVSAIWGSGSNTYYADSVKGRFTISRDNSKNTLYLQMNSLRAEDTAVYYCARGRDLAAFTKTAFDVWGQGTLVTVSS
VL: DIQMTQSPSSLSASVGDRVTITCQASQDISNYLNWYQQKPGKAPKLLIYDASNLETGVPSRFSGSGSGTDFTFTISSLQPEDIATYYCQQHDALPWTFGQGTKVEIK
A word on the koff: it is the first-order rate constant of dissociation. Low readings indicate slow dissociation, high ones fast dissociation. What is called Kd is a measure of binding affinity in units of concentration. A lower Kd goes with higher affinity. One may read the kon as the rate constant with which the complex forms. For the molecule B1, the “live SARS-CoV-2 neutralization IC50” value in test [1] is 0.0756 µg/mL. The koff with RBD-SD1 [2] is 0.0019 s⁻¹. Moreover, in the test with RBD-SD1 [3], the Kd was found to be 6.19 nM, the koff was 0.00627 s⁻¹ and the kon turned out to be 1.01e+06 M⁻¹ s⁻¹.

B2: 612-017 (scFv, V domains shown)
VH: B1 VH
VL: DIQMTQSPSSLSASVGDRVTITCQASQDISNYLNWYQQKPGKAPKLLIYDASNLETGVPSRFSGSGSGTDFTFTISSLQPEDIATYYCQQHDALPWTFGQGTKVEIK
In turn, B2 showed a Kd in the test with RBD-SD1 [4] of 10.2 nM.

B3: N-612-007 (antibody, V domains shown)
VH: EVQLVESGGGLVQPGGSLRLSCAASGFTFSNYAMHWVRQAPGKGLEWVSAISGNGGSTGYADSVKGRFTISRDNSKNTLYLQMNSLRAEDTAVYYCARDRWYVKNAFDVWGQGTLVTVSS
VL: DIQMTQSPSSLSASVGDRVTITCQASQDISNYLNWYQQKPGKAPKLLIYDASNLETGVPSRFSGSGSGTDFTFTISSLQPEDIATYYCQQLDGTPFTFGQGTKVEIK
On to B3, for which, in test [1], the “live SARS-CoV-2 neutralization IC50” value came to 0.0452 µg/mL. In addition, the binding result (in the test with RBD-SD1 [5]; in test [6]) was “no binding (tested: 2x dilution series starting at 100 nM)” in each case.

B4: N-612-002 (antibody, V domains shown)
VH: EVQLVESGGGLVQPGGSLRLSCAASGFTFSSYTMHWVRQAPGKGLEWVSAISGSGGSTYYADSVKGRFTISRDNSKNTLYLQMNSLRAEDTAVYYCARDLFDFWGFDVWGQGTLVTVSS
VL: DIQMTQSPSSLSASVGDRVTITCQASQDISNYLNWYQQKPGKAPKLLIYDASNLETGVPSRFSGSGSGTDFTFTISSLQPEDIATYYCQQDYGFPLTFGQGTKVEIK
For B4, the binding result (in the test with RBD-SD1 [5]; in test [6]) was “no binding (tested: 2x dilution series starting at 100 nM)” throughout.

B5: N-612-004 (antibody, V domains shown)
VH: EVQLVESGGGLVQPGGSLRLSCAASGFTFSSYYMHWVRQAPGKGLEWVSAISGSGGYTYYADSVKGRFTISRDNSKNTLYLQMNSLRAEDTAVYYCARDRDHAYDWGFDVWGQGTLVTVSS
VL: DIQMTQSPSSLSASVGDRVTITCQASQDISNYLNWYQQKPGKAPKLLIYDASNLETGVPSRFSGSGSGTDFTFTISSLQPEDIATYYCQQWADWPLTFGQGTKVEIK
Regarding B5, the “live SARS-CoV-2 neutralization IC50” value in test [1] came out at 0.194 µg/mL.

B6: 612-056 (scFv, V domains shown)
VH: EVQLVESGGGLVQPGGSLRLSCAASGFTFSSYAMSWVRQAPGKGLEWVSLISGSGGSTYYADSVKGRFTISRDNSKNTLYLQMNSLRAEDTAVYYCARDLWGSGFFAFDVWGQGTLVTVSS
VL: B5 VL with W91D, D93G, W94T
Take B6: binding with RBD-SD1 [7] was put at a Kd of 4.77 nM.

B7: N-612-056 (antibody, V domains shown)
VH: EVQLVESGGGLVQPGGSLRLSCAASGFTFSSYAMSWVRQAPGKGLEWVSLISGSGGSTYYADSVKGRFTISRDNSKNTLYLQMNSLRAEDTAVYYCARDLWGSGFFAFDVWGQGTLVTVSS
VL: B5 VL with W91D, D93G, W94T
For the molecule B7, the “live SARS-CoV-2 neutralization IC50” value in test [1] turned out to be 0.855 µg/mL.

B8: N-612-014 (antibody, V domains shown)
VH: EVQLVESGGGLVQPGGSLRLSCAASGFTFSSYAMTWVRQAPGKGLEWVSYISGSGGGTYYADSVKGRFTISRDNSKNTLYLQMNSLRAEDTAVYYCARDRWASGWLAFDVWGQGTLVTVSS
VL: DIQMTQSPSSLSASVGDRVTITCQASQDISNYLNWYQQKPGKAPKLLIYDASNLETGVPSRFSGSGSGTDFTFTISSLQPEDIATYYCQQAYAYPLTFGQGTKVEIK
For the molecule B8, the “live SARS-CoV-2 neutralization IC50” value in test [1] is 0.00791 µg/mL. The binding result (with RBD-SD1 [5]; in test [6]) was “no binding (tested: 2x dilution series starting at 100 nM)” throughout.

B9: N-612-044 (antibody, V domains shown)
VH: EVQLVESGGGLVQPGGSLRLSCAASGFTFSNYAMHWVRQAPGKGLEWVSAISGSGGSTYYADSVKGRFTISRDNSKNTLYLQMNSLRAEDTAVYYCARDLSFWLTYHLASAFDVWGQGTLVTVSS
VL: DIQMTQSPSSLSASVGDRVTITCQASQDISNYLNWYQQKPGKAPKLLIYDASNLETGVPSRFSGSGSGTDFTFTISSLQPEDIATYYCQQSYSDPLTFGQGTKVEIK
As to B9, the binding result (with RBD-SD1 [5]; in test [6]) was “no binding (tested: 2x dilution series starting at 100 nM)” in each case.

Values taken from patent US20230218743A1 (IMMUNITYBIO, published 2023).
